Measurements published in a protein production outcome set (Wang et al. 2014).

Assay: label from the status in PepcDB records
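Note: failed if final PepcDB status was selected cloned or expressed and not failed if soluble or beyond.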

Row | Sequence | protein production
1 | MSNSHLGTLCFIISLLGLANFSLSQTGLDDSTMQSLKSSLNLTSDVDWSNPNPCKWQSVQCDGSNRVTKIQLKQKGIRGTLPTNLQSLSELVILELFLNRISGPIPDLSGLSRLQTLNLHDNLFTSVPKNLFSGMSSLQEMYLENNPFDPWVIPDTVKEATSLQNLTLSNCSIIGKIPDFFGSQSLPSLTNLKLSQNGLEGELPMSFAGTSIQSLFLNGQKLNGSISVLGNMTSLVEVSLQGNQFSGPIPDLSGLVSLRVFNVRENQLTGVVPQSLVSLSSLTTVNLTNNYLQGPTPLFGKSVGVDIVNNMNSFCTNVAGEACDPRVDTLVSVAESFGYPVKLAESWKGNNPCVNWVGITCSGGNITVVNMRKQDLSGTISPSLAKLTSLETINLADNKLSGHIPDELTTLSKLRLLDVSNNDFYGIPPKFRDTVTLVTEGNANMGKNGPNKTSDAPGASPGSKPSGGSDGSETSKKSSNVKIIVPVVGGVVGALCLVGLGVCLYAKKRKRPARVQSPSSNMVIHPHHSGDNDDIKLTVAASSLNSGGGSDSYSHSGSAASDIHVVEAGNLVISIQVLRNVTNNFSEENILGRGGFGTVYKGELHDGTKIAVKRMESSVVSDKGLTEFKSEITVLTKMRHRHLVALLGYCLDGNERLLVYEYMPQGTLSQHLFHWKEEGRKPLDWTRRLAIALDVARGVEYLHTLAHQSFIHRDLKPSNILLGDDMRAKVSDFGLVRLAPDGKYSIETRVAGTFGYLAPEYAVTGRVTTKVDIFSLGVILMELITGRKALDETQPEDSVHLVTWFRRVAASKDENAFKNAIDPNISLDDDTVASIEKVWELAGHCCAREPYQRPDMAHIVNVLSSLTVQWKPTETDPDDVYGIDYDMPLPQVLKKWQAFEGLSQTADDSGSSSSAYGSKDNTQTSIPTRPSGFADSFTSVDGR | failed
2 | MSNSKWWFLLVCFIPAITFASEGGEHSDPVTSVLLGVTTILFLAIIGRYLARLLNQPGVLGELLIGMIVGNLSYFFGSELVVILREGSAIYDVVKEMLAGISLNQAVTHVIHNSYYANQVIHALSGAEGTEYLKIAYVVDIFSRYGVIFLLFMVGLETSLSDLKKTGKESILVAVIGIVAPMILGFVVACFIIPNSNYKINLFIGATLSATSIGITASVLKEMNKLSTREARTILGAATLDDILGLIILAVVSSIVISGAVSIMVVMKIIILALLFFIGTLFMGPFVLRKAVDLFRFLEPWESKLFISFLFIMALAWLASFIQLAAIIGAFAAGVILHDDYFGEQKAHHKDHRSIHHLVSPLETILAPMFFTLIGIQVKLETFYDWNVIVLAGGLSVAAILGKLLSGLGANRRDDRLLIGIGMLPRGEVGLVFASIGRTIGVISDNLFTAIVLMIMITTFIAPPLLKMRYAKPKEDRNA | failed
3 | MSNTIIRSLCVVLFGIAAVPGIADAQSSAYTNSGAELFAGPAPDYPVVAQLPPGTAVDVFGCLSDYSWCDVALPGVRGWIDAQQLDYPYQGNYVPLLEYGAIIGVPVTGFAIGTYWDRYYRHRPWFHDRDRWEHRAEPRVGPGGMPPAYYGRPQPGWPAQREPRGAPPVQHDARPSATRGGWNGPNRAPAPQVAPAPARAPAPMPAPAPMPAPAPIPGAAGVRQPAPPPAQPAQPAPSGGAVQMMPPAHQGGGGYGGRPQGGGDGGGNHGGGGGRGRSDEFRR | failed
4 | MSNYAAGLGKPGSGKRRIRDLLNQPDNRVCADCGASVPKWAKYQSIHLLKSCGVHRSLGTHILKVLSVTLDEWSDEEVDSMIETGGNASANSIYEAFVPDTCSKPGPDVNHDQRMRFIR | failed
5 | MSPAPPRGPGMSQARSLSLILAAVLASLLPVTGSQAGEPGRALWVMSYNIRYDNPDDRPDWRTRRGPMVEQIRFFAPDILGLQEALPAMVDQLAGDLAGYAHYGVGRDDGARLGETTTIFYRAERFQRVLARTYWCSPTPDTPSKAYDAALPRTFTRLVLKDRITGVTFDVRNAHLDHVGAESRAKCAAQILALAPWPKARLITLGDFNSAPEEAPYRLLTAPEGPYRDARAAASSVFSPSTGTFNRFTPASIGPPIDYIFVDRRLNVARFAVPTDVADAGVISDHFPVLAEITLSPKTRAKAKP | failed
6 | MSPGPQSGGQERGSMERKMVELEDTGLTFATEVDLERLQALAAEWLQVIGEDPGREGLLKTPERVAKAWAFLTRGYRQRLEEVVGGAVFPAEGSEMVVVKGVEFYSMCEHHLLPFFGKVHIGYIPDGKILGLSKFARIVDMFARRLQVQERLAVQIAEAIQEVLEPQGVGVVVEGVHLCMMMRGVEKQHSRTVTSAMLGVFRENQKTREEFLSHLRDGTA | not failed
7 | MSPIALARLLTLAAVWGASFLFMRIIAPELGTVPTAFFRVSIACLGLIVILAAARVRWNFQGKLGACLVLGMINSGIPATFYSVAAQVLPAGYSAIFNATTPLMGVLVGVLFFREPMTLAKLCGIFLGLFGVGILSGAGPVALDMALLQGALACLAATTCYGFAGFLARRWISGLDSRLSALGSMLGATLMLTPLFGWSALTQPPASWGGWEVWLSLLGLGLLCTAFAYILYFRLLEEIGPVKASTVTFLIPVFGVLWGAWLLNEPLSMAHLYGGLLIGLALWLVLRPARS | failed
8 | MSPIEHAVISAAGIGSRLGLNKPKCLVEVGGKTLLAQHLERLAEIPNVWVVVGFQEELVIEQVRNLRRDAIIVRNPDFDRTNTLQSIHRVSRYLDRRFLAVDGDTFIENRSFERFLRAAAGQAGLIGVSRYTTSDGVRVLLDAGGEAVTAFTREPQHAYEWTGIAILRPDMVVDRPIYVYQALEPYLPLPAQELDAFDIDTASDLDMARRVHLNNWNLND | failed
9 | MSPIILSITIIAYFMILFAISYIAGHKADNEGFFVGNRKSAWYIVAFAMIGSTISGVTFVSVPGMVQASGFSYLQMVLGFIVGQFIIAFILVPLFYRMNLVSIYEYLENRFGASSYKTGAWFFFISKMLGAAVRLFLVCLTLQLLIFEPFHIPFIINVILTVLIVWLYTFRGGVKSLIWTDVLKTFCLVVSVVLCIYYIASSLHLNFSGLVSTISDNDLSKMFFFDDVNDKRYFFKQFLAGVFTVIAMNGLDQDMMQRNLSCKNFRDSQKNMITSGISQFFVILLFLMLGVLLYTFTARQGIENPGKSDELFPMIATGNYFPGIVGILFIIGLIASAYSAAGSALTALTTSFTVDILNAHKKDEAALSKIRKHVHIGMAFVMGIVIFVFNLLNNTSVIDAIYTLASYTYGPILGLFAFGIFTKKQVYDPYIPLVAILSPALCYVLQRNSEAWFDGYQISYELLILNAAFTFLGLCLLIKRKSSVAPINNSLIKKH | failed
10 | MSPKKDKFLDNAQKFLVKGQLDRALREYEQAVAIDPKDVRVRQKYAELLVRANRKDDALKEFEVIGKYYSDNGFYLKAIAVYKQIQKLTPSNLDISLTLGALNEKQGLIGNALAEYKFVFDHYERSNRFIDAVAVLEKMLAADRDNLNIRLKLAETRHRANLIDDAYHDYTELARELRSKGDNAAYTRVCERIASMFPDRKDFLLTVAENQIRDGKAAAAIPVLKQIVGDDRWNPKALYLLADAARAVADPAMVKGAYGQIIKRFPGEITAIKGFLFSLKAEGNVDEAVRVLRHVEPELIKAEPETLEQFYLSFRDLSPDHPGIAEGLLRIRGTAGVDEPEPMVEQVPDVAEPEKEADFAPQPEESDSVMEEPPAEDIPWEEEIDISFDSDGASVEGNRPTEGEASESPSFLHDEGMSLVEADESPIRFDDSSEEETREVEVELADFSSITPDWLDGVPDSAMDKPGETTFSEGLSLDFTDGELEDVIPPPPLDSPMPKPDKYGLDGLFSAFKKGVGEQLTQDDTESHYSLGIAYKEMGLFDDAIVEFQSAARDPRRLADCITLQGICSREKGDPAKAEEYFRSGLAVEGLNREERLCLTYELALLYEMIGDRTRALAGYREALALNPGFRDVAQKIAILRSDGDTHDAADLELLDLDEVEEGAG | failed
11 | MSPMSRAGTTVMRRIILMLIYCCLGTGLAGCDYTLREAAIVAPVDPPGGDPVQEPTDVKYYPSDEPVRLGLEHFNRGSYGLSQRYFKDAVEKSPKDLTAWIGLAASYDRLRRFDLADQAYAQAIRLGGETVQILNDQGYSYMLRGNLSAARRKFEKAYSLDPGNPVIANNLELLNGSRRFIERPPNNQP | failed
12 | MSPPLDHAWIAARIPHSGAMCLLDQVVTWDDTHIRCTTTSHRAPDNPLRAHGRLAAVCGIEYAAQAMAVHGAILGNAQDRPRAGFLASVRSVEAHVERLDTIEAPLTIEAERIGGDGNNVLYRFSVRCGERVLLTGRAAVVLDAAGLGLPDAGALAKANAQARLEHHHHHH | failed
13 | MSPTSMYIAWGWKDIIPQLPALIHAFQTSEMNTPKMRRLCKFTALPEAMNNIGDRSDVYSFRIFLGTIITVKVSYETLDRLTARHTSLRCYRVACLRIKYAYYTNNNASPGHSFNIKLNIDTGVKGSI | failed
14 | MSQAIPSSRVGVKINEWYKMIRQFSVPDAEILKAEVEQDIQQMEEDQDLLIYYSLMCFRHQLMLDYLEPGKTYGNRPTVTELLETIETPQKKLTGLLKYYSLFFRGMYEFDQKEYVEAIGYYREAEKELPFVSDDIEKAEFHFKVAEAYYHMKQTHVSMYHILQALDIYQNHPLYSIRTIQSLFVIAGNYDDFKHYDKALPHLEAALELAMDIQNDRFIAISLLNIANSYDRSGDDQMAVEHFQKAAKVSREKVPDLLPKVLFGLSWTLCKAGQTQKAFQFIEEGLDHITARSHKFYKELFLFLQAVYKETVDERKIHDLLSYFEKKNLHAYIEACARSAAAVFESSCHFEQAAAFYRKVLKAQEDILKGRVFICLLRKKVMMCLAVTLVFGSMSFPTLTNSGGFKESTDRNTTYIDHSPYKLSDQKKALS | failed
15 | MSQDLIRAAFEKRLSDWAKARTPALPVAWQNTKFTPPAAGVYLRAYVMPAATISRDAAGDHRQYRGVFQVNVVMPIGDGSRSAEQVAAELDALFPVNLVMQSGGLAVRVRTPISNGQPTTGDADHTVPISLGYDVQFYPE | not failed
16 | MSQDRIAGIDVATNSTDISNIINEMIICIKGKQMPEVHEKAMDHLSKMIAANSRVIRDSNMLTERECVQKIMKLLSARYKKEEGKTVSDHFNELYRKLTLTKCDPHMRHSLMTHLLTITDNSDAEKAVASEDPRTQCDNLTQILVSRLNSISSSIASLNEMGVVNGNGVGAAAVTGAAAVTGAAAVTGAAAVTGAAASHSYDATQSSIGLRKQSLPNYLDATKMLPESRHDIVMSAIYSFTGVQGKYLKKDVVTGRFKLDQQNIKFLTTGQAGMLLRLSELGYYHDRVVKFSDVSTGFNAIGSMGQALISKLKEELANFHGQVAMLHDEMQRFRQASVNGIANKGKKDSGPDAGDEMTLFKLLAWYIKPLHRMQWLTKIADACQVKKGGDLASTVYDFLDNGNDMVNKLVEDFLTAICGPLVRMISKWILEGGISDMHREFFVKSIKDVGVDRLWHDKFRLRLPMLPKFVPMDMANKIFMTGKSINFLREICEEQGMMKERDELMKVMESSASQIFSYTPDTSWHAAVETCYQQTSKHVLDIMVGPHKLLDHLHGMRRYLLLGQGDFISILIENMKNELERPALDIYANDLTSMLDSALRCTNAQYDDPDILNHLDVIVQRPFNGDIGWNIISLQYIVHGPLAAMLESTMPTYKVLFKPLWRMKHMEFVLSMKIWKEQMGNAKALRTMKSEIGKASHRLNLFTSEIMHFIHQMQYYVLFEVIECNWVELQKKMQKATTLDEILEAHEKFLQTILVGCFVSNKASVEHSLEVVYENIIELEKWQSSFYKDCFKELNARKELSKIVEKSEKKGVYGLTNKMILQRDQEAKIFAEKMDIACRGLEVIATDYEKAVSTFLMSLNSSDDPNLQLFGTRLDFNEYYKKRDTNLSKPLTFEHMRMSNVFAVNSRFVICTPSTQE | failed
